Test results: PMC4571279 (Nature Communications, 2015)
Where a chain is given by its changes, count along the chain named. Names may count otherwise.

B1:  (Fab, V domains shown)
VH: QVQLVQSGAEVKKPGSSVKVSCKASGGTFSSYAISWVRQAPGQGLEWMGGIIPILGTASYAQKFQGRVTITADKSTSTAYMELSSLRSEDTAVYYCARVGYCSSTSCNRGAFDIWGQGTMVTVSS
VL: DIQLTQSPSSLSASVGDRVTITCRASQGIRNDLGWYQQKPGKAPKLLIYAASSLQSGVPSRFSGSGSGTDFTLTISSLQPEDFATYYCQQLNSYPLTFGGGTKVEIK
notes: also called m336 F54L
B2:  (Fab, V domains shown)
VH: B1 VH with L55F, K74E
VL: B1 VL
notes: also called m336 K73E

Biological target: T1, recombinant MERS-CoV S1 protein (MERS-CoV, isolate EMC/2012 (strain of …, UniProt K0BRG7))
T1 construct: source: bought: Sino Biological Inc
Experiment: ELISA
Settings: both partners purified

Binder	fold reduction (EC50) against wild-type m336	fold reduction of binding affinity against m336
B1	≥ 1000 fold	–
B2	–	≥ 10 fold
